The values below come from US20230382974A1 (HANMI PHARM, published 2023).

Bridges are numbered along the chain shown (N, C = ends). Where no end group is shown, it is not given here. [ ]: non-standard residue; d: D form. Aib = CC(C)(N)C(=O)O

Holding throughout (experiment): cell-based or functional assay
For one assay, the target named is human glucagon receptor (human, UniProt P47871 26-477).
In the next assay the target is human GLP-1 receptor (human, UniProt P43220 24-463).
The next assay concerns the target T1, human GIP receptor (human, UniProt P48546 22-466).
T1 sequence (looked up): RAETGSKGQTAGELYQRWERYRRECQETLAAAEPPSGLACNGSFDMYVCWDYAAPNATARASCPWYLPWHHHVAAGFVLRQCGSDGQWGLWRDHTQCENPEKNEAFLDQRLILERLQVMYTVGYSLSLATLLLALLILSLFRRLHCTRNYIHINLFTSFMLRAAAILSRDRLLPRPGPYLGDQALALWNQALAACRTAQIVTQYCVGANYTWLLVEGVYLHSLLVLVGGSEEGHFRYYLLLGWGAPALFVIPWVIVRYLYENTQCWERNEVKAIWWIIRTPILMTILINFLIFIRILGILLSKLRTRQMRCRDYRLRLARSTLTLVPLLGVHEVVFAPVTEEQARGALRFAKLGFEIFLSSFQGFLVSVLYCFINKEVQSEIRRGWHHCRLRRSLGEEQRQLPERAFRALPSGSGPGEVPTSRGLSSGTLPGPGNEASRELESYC

Chain of human glucagon receptor (P47871 26-477): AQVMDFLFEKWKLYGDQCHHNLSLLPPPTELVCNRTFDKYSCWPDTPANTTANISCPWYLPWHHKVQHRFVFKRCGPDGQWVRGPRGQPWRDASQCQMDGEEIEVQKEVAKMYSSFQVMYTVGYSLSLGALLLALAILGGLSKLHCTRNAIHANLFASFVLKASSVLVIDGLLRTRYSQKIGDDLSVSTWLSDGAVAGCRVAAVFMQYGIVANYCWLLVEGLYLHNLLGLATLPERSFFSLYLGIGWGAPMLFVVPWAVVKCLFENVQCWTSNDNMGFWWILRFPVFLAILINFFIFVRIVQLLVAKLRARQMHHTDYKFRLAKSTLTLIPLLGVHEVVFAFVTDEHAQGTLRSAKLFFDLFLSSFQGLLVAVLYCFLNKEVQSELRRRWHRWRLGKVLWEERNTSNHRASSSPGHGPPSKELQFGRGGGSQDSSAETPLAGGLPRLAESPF

B1: triple agonist peptide of SEQ ID NO: 2 (peptide)
peptide: Y[Aib]QGTFTSDYSKYLDEQAAKEFVQWLLDHHPSSGQPPPSC-NH2
modifications: bridge 16-20
B1: the “In vitro activity relative to native peptide (%), vs. Glucagon (cAMP accumulation EC50, LANCE cAMP kit, CHO cells)” value with human glucagon receptor turned out to be 146%. For the same molecule, in the assay with human GLP-1 receptor, the “In vitro activity relative to native peptide (%), vs. GLP-1 (cAMP accumulation EC50, LANCE cAMP kit, CHO cells)” value was determined as 91.4%. Besides, in the assay with human GIP receptor, the “In vitro activity relative to native peptide (%), vs. GIP (cAMP accumulation EC50, LANCE cAMP kit, CHO cells)” value was found to be 150%.

B2: triple agonist peptide of SEQ ID NO: 11 (peptide)
peptide: Y[Aib]QGTFTSDYSIYLDEKAAKEFVQWLLDQHPSSGQPPPSC-NH2
modifications: bridge 16-20
Take B2: in the assay with human glucagon receptor, the “In vitro activity relative to native peptide (%), vs. Glucagon (cAMP accumulation EC50, LANCE cAMP kit, CHO cells)” value amounted to 10.2%. Further, the “In vitro activity relative to native peptide (%), vs. GLP-1 (cAMP accumulation EC50, LANCE cAMP kit, CHO cells)” value with human GLP-1 receptor is 77.6%. In addition, the “In vitro activity relative to native peptide (%), vs. GIP (cAMP accumulation EC50, LANCE cAMP kit, CHO cells)” value with human GIP receptor amounted to 33.7%.

B3: triple agonist peptide of SEQ ID NO: 7 (peptide)
peptide: Y[Aib]QGTFTSDYSKALDEKAAKDFVQWLKDQHPSSGQPPPSC-NH2
modifications: bridge 16-20
As to B3, the “In vitro activity relative to native peptide (%), vs. Glucagon (cAMP accumulation EC50, LANCE cAMP kit, CHO cells)” value with human glucagon receptor came to 3.62%. In addition, the “In vitro activity relative to native peptide (%), vs. GLP-1 (cAMP accumulation EC50, LANCE cAMP kit, CHO cells)” value with human GLP-1 receptor came to 97.8%. For the same molecule, the “In vitro activity relative to native peptide (%), vs. GIP (cAMP accumulation EC50, LANCE cAMP kit, CHO cells)” value in the assay with human GIP receptor came to 33.9%.

B4: triple agonist peptide of SEQ ID NO: 6 (peptide)
peptide: Y[Aib]QGTFTSDYSKALDEKAAKDFVQWLLDQHPSSGQPPPSC-NH2
modifications: bridge 16-20
For B4, the “In vitro activity relative to native peptide (%), vs. Glucagon (cAMP accumulation EC50, LANCE cAMP kit, CHO cells)” value with human glucagon receptor came to 78.1%. For the same molecule, the “In vitro activity relative to native peptide (%), vs. GLP-1 (cAMP accumulation EC50, LANCE cAMP kit, CHO cells)” value with human GLP-1 receptor was determined as 89.5%. In addition, in the assay with human GIP receptor, the “In vitro activity relative to native peptide (%), vs. GIP (cAMP accumulation EC50, LANCE cAMP kit, CHO cells)” value is 513%.

B5: triple agonist peptide of SEQ ID NO: 4 (peptide)
peptide: Y[Aib]QGTFTSDYSIYLDEQRAKEFIAWLLAHHPSSGQPPPSC-NH2
modifications: bridge 16-20
With B5, in the assay with human glucagon receptor, the “In vitro activity relative to native peptide (%), vs. Glucagon (cAMP accumulation EC50, LANCE cAMP kit, CHO cells)” value came out at 59.9%. The “In vitro activity relative to native peptide (%), vs. GLP-1 (cAMP accumulation EC50, LANCE cAMP kit, CHO cells)” value in the assay with human GLP-1 receptor turned out to be 11.2%. For the same molecule, in the assay with human GIP receptor, the “In vitro activity relative to native peptide (%), vs. GIP (cAMP accumulation EC50, LANCE cAMP kit, CHO cells)” value was found to be 124%.

B6: triple agonist peptide of SEQ ID NO: 9 (peptide)
peptide: Y[Aib]EGTFTSDYSEYMEKEAVREFICWLVKGGPSSGAPPPS-NH2
modifications: bridge (positions not given here); not fully specified; also: ring formation between underlined and bold residues, places not given here
For B6, the “In vitro activity relative to native peptide (%), vs. Glucagon (cAMP accumulation EC50, LANCE cAMP kit, CHO cells)” value with human glucagon receptor was found to be 26.6%. The “In vitro activity relative to native peptide (%), vs. GLP-1 (cAMP accumulation EC50, LANCE cAMP kit, CHO cells)” value with human GLP-1 receptor was found to be 37%. Besides, the “In vitro activity relative to native peptide (%), vs. GIP (cAMP accumulation EC50, LANCE cAMP kit, CHO cells)” value with human GIP receptor was 11.7%.

B7: triple agonist peptide of SEQ ID NO: 8 (peptide)
peptide: Y[Aib]QGTFTSDCSKYLDEKAAKEFVQWLLDHHPSSGQPPPS-NH2
modifications: bridge 16-20
Take B7: the “In vitro activity relative to native peptide (%), vs. Glucagon (cAMP accumulation EC50, LANCE cAMP kit, CHO cells)” value with human glucagon receptor was 5.52%. In the assay with human GLP-1 receptor, the “In vitro activity relative to native peptide (%), vs. GLP-1 (cAMP accumulation EC50, LANCE cAMP kit, CHO cells)” value amounted to 42.6%. Further, the “In vitro activity relative to native peptide (%), vs. GIP (cAMP accumulation EC50, LANCE cAMP kit, CHO cells)” value in the assay with human GIP receptor is 6.19%.

B8: triple agonist peptide of SEQ ID NO: 1 (peptide)
peptide: Y[Aib]QGTFTSDYSKYLDEQRAKEFVQWLLDHHPSSGQPPPSC-NH2
modifications: bridge 16-20
Turning to B8, the “In vitro activity relative to native peptide (%), vs. Glucagon (cAMP accumulation EC50, LANCE cAMP kit, CHO cells)” value in the assay with human glucagon receptor was 443%. Also, the “In vitro activity relative to native peptide (%), vs. GLP-1 (cAMP accumulation EC50, LANCE cAMP kit, CHO cells)” value with human GLP-1 receptor came to 16.6%. Besides, the “In vitro activity relative to native peptide (%), vs. GIP (cAMP accumulation EC50, LANCE cAMP kit, CHO cells)” value with human GIP receptor was found to be 51.5%.

B9: triple agonist peptide of SEQ ID NO: 5 (peptide)
peptide: Y[Aib]QGTFTSDYSKYLDEKRAKEFVQWLLDQHPSSGQPPPSC-NH2
modifications: bridge 16-20
Take B9: in the assay with human glucagon receptor, the “In vitro activity relative to native peptide (%), vs. Glucagon (cAMP accumulation EC50, LANCE cAMP kit, CHO cells)” value turned out to be 826%. Besides, the “In vitro activity relative to native peptide (%), vs. GLP-1 (cAMP accumulation EC50, LANCE cAMP kit, CHO cells)” value with human GLP-1 receptor amounted to 49.1%. Further, the “In vitro activity relative to native peptide (%), vs. GIP (cAMP accumulation EC50, LANCE cAMP kit, CHO cells)” value with human GIP receptor amounted to 35.5%.

B10: triple agonist peptide of SEQ ID NO: 3 (peptide)
peptide: Y[Aib]QGTFTSDYSKYLDEQRAKEFIAWLLDHHPSSGQPPPSC-NH2
modifications: bridge 16-20
Turning to B10, the “In vitro activity relative to native peptide (%), vs. Glucagon (cAMP accumulation EC50, LANCE cAMP kit, CHO cells)” value with human glucagon receptor was 577%. Further, the “In vitro activity relative to native peptide (%), vs. GLP-1 (cAMP accumulation EC50, LANCE cAMP kit, CHO cells)” value with human GLP-1 receptor was 17.4%. Also, the “In vitro activity relative to native peptide (%), vs. GIP (cAMP accumulation EC50, LANCE cAMP kit, CHO cells)” value with human GIP receptor came to 48.4%.

B11: triple agonist peptide of SEQ ID NO: 12 (peptide)
peptide: Y[Aib]EGTFTSDYSIQLDKQAA[Aib]AFVQWLIAGGPSSGAPPPSK-NH2
As for B11, the “In vitro activity relative to native peptide (%), vs. Glucagon (cAMP accumulation EC50, LANCE cAMP kit, CHO cells)” value with human glucagon receptor was 6.6%. Also, the “In vitro activity relative to native peptide (%), vs. GLP-1 (cAMP accumulation EC50, LANCE cAMP kit, CHO cells)” value with human GLP-1 receptor was 87.2%. For the same molecule, the “In vitro activity relative to native peptide (%), vs. GIP (cAMP accumulation EC50, LANCE cAMP kit, CHO cells)” value with human GIP receptor amounted to 52.8%.

B12: triple agonist peptide of SEQ ID NO: 10 (peptide)
peptide: Y[Aib]QGTFTSDYSKYLDERASKDFVQWLLDHHPSSGQPPPSC-NH2
modifications: bridge 16-20
As for B12, in the assay with human glucagon receptor, the “In vitro activity relative to native peptide (%), vs. Glucagon (cAMP accumulation EC50, LANCE cAMP kit, CHO cells)” value was found to be 19%. In the assay with human GLP-1 receptor, the “In vitro activity relative to native peptide (%), vs. GLP-1 (cAMP accumulation EC50, LANCE cAMP kit, CHO cells)” value came to 65.3%. Moreover, in the assay with human GIP receptor, the “In vitro activity relative to native peptide (%), vs. GIP (cAMP accumulation EC50, LANCE cAMP kit, CHO cells)” value is 23.4%.
